Experimental data reported in article PMC4377555, “A novel PKD2L1 C-terminal domain critical for trimerization and channel function” (Scientific Reports, 2015).
Several values for one entry are separate records, joined by “and”; a condition that tells them apart may be missing. Equal values may be shown once.

Tests used:
[1] = target: the molecule itself; assay: native gel or EMSA; BN-PAGE of purified GFP fusion proteins, Coomassie blue staining
[2] = target: the molecule itself; assay: non-reducing SDS-PAGE with Western blot; lysates of transfected HEK or HeLa cells, SDS loading buffer without reducing reagents, on ice 5 min, 8% gel; some samples also under reducing condition or with 10 mM NEM in the lysis buffer
[3] = target: the molecule itself; assay: native gel or EMSA; BN-PAGE with Western blot of HeLa cell lysates (NativePAGE Sample Prep Kit, Coomassie G-250, 3-12% BisTris gels), non-denaturing
[4] = target: the molecule itself; assay: dynamic light scattering; Malvern Zetasizer Nano ZS, 25°C; 50 mM NaH2PO4, 300 mM NaCl, 250 mM imidazole, pH 8.0; 0.4 mg/ml; oligomeric state from the apparent hydrodynamic diameter

| Protein | stoichiometry N [2] | stoichiometry N [3] | other results |
| --- | --- | --- | --- |
| KDELQLSDLLKQGYNKTLLRLRLRKERVSDVQKVLQGGEQEIQFEDFT (domain or fragment, human, UniProt Q9P0L9-1 575-622, looked up, PKD2L1, human, domain C1 K575-T622 (48 amino acids), in pET28a(+) with an upstream GFP gene; source: E. coli BL21 (DE3), purified (Ni-NTA); not shown: GFP, N-terminal, kept) [GFP-C1 (GFP fused to PKD2L1 C1, K575-T622)] | – | – | stoichiometry N [1]: 3 |
| human PKD2L1 over-expressed from pcDNA3.1(+) (natural protein, UniProt Q9P0L9-1 1-805, looked up, PKD2L1, human, full-length cDNA in pcDNA3.1(+), no tag named for this experiment; also called TRPP3; source: HEK293T and HeLa cells, transfected, in lysate) MNAVGSPEGQELQKLGSGAWDNPAYSGPPSPHGTLRVCTISSTGPLQPQPKKPEDEPQETAYRTQVSSCCLHICQGIRGLWGTTLTENTAENRELYIKTTLRELLVYIVFLVDICLLTYGMTSSSAYYYTKVMSELFLHTPSDTGVSFQAISSMADFWDFAQGPLLDSLYWTKWYNNQSLGHGSHSFIYYENMLLGVPRLRQLKVRNDSCVVHEDFREDILSCYDVYSPDKEEQLPFGPFNGTAWTYHSQDELGGFSHWGRLTSYSGGGYYLDLPGSRQGSAEALRALQEGLWLDRGTRVVFIDFSVYNANINLFCVLRLVVEFPATGGAIPSWQIRTVKLIRYVSNWDFFIVGCEVIFCVFIFYYVVEEILELHIHRLRYLSSIWNILDLVVILLSIVAVGFHIFRTLEVNRLMGKLLQQPNTYADFEFLAFWQTQYNNMNAVNLFFAWIKIFKYISFNKTMTQLSSTLARCAKDILGFAVMFFIVFFAYAQLGYLLFGTQVENFSTFIKCIFTQFRIILGDFDYNAIDNANRILGPAYFVTYVFFVFFVLLNMFLAIINDTYSEVKEELAGQKDELQLSDLLKQGYNKTLLRLRLRKERVSDVQKVLQGGEQEIQFEDFTNTLRELGHAEHEITELTATFTKFDRDGNRILDEKEQEKMRQDLEEERVALNTEIEKLGRSIVSSPQGKSGPEAARAGGWVSGEEFYMLTRRVLQLETVLEGVVSQIDAVGSKLKMLERKGWLAPSPGVKEQAIWKHPQPAPAVTPDPWGVQGGQESEVPYKREEEALEERRLSRGEIPTLQRS | 2 and 3 and 4 | – | – |
| Flag-tagged human PKD2L1 WT (natural protein, UniProt Q9P0L9-1 1-805, looked up, PKD2L1, human, full-length cDNA in pcDNA3.1(+), Flag inserted 5' of the coding region; also called Flag-PKD2L1; source: HeLa cells, transfected, in lysate; not shown: Flag, N-terminal, kept) MNAVGSPEGQELQKLGSGAWDNPAYSGPPSPHGTLRVCTISSTGPLQPQPKKPEDEPQETAYRTQVSSCCLHICQGIRGLWGTTLTENTAENRELYIKTTLRELLVYIVFLVDICLLTYGMTSSSAYYYTKVMSELFLHTPSDTGVSFQAISSMADFWDFAQGPLLDSLYWTKWYNNQSLGHGSHSFIYYENMLLGVPRLRQLKVRNDSCVVHEDFREDILSCYDVYSPDKEEQLPFGPFNGTAWTYHSQDELGGFSHWGRLTSYSGGGYYLDLPGSRQGSAEALRALQEGLWLDRGTRVVFIDFSVYNANINLFCVLRLVVEFPATGGAIPSWQIRTVKLIRYVSNWDFFIVGCEVIFCVFIFYYVVEEILELHIHRLRYLSSIWNILDLVVILLSIVAVGFHIFRTLEVNRLMGKLLQQPNTYADFEFLAFWQTQYNNMNAVNLFFAWIKIFKYISFNKTMTQLSSTLARCAKDILGFAVMFFIVFFAYAQLGYLLFGTQVENFSTFIKCIFTQFRIILGDFDYNAIDNANRILGPAYFVTYVFFVFFVLLNMFLAIINDTYSEVKEELAGQKDELQLSDLLKQGYNKTLLRLRLRKERVSDVQKVLQGGEQEIQFEDFTNTLRELGHAEHEITELTATFTKFDRDGNRILDEKEQEKMRQDLEEERVALNTEIEKLGRSIVSSPQGKSGPEAARAGGWVSGEEFYMLTRRVLQLETVLEGVVSQIDAVGSKLKMLERKGWLAPSPGVKEQAIWKHPQPAPAVTPDPWGVQGGQESEVPYKREEEALEERRLSRGEIPTLQRS | – | 3 and 2 | – |
| purified PKD2L1 C-terminus (CT, E566-S805) (domain or fragment, human, UniProt Q9P0L9-1 566-805, looked up, PKD2L1, human, C-terminus E566-S805; the methods describe only GFP-C1 in pET28a(+) and Ni-NTA; the DLS buffer holds 250 mM imidazole; source: E. coli, purified) EVKEELAGQKDELQLSDLLKQGYNKTLLRLRLRKERVSDVQKVLQGGEQEIQFEDFTNTLRELGHAEHEITELTATFTKFDRDGNRILDEKEQEKMRQDLEEERVALNTEIEKLGRSIVSSPQGKSGPEAARAGGWVSGEEFYMLTRRVLQLETVLEGVVSQIDAVGSKLKMLERKGWLAPSPGVKEQAIWKHPQPAPAVTPDPWGVQGGQESEVPYKREEEALEERRLSRGEIPTLQRS | – | – | stoichiometry N [4]: 3 |
| Flag-tagged PKD2L1 ΔNT (deletion of M1-Y96) (domain or fragment, human, UniProt Q9P0L9-1 97-805, looked up, PKD2L1, human, deletion of the N-terminus M1-Y96; also called Flag-ΔNT; Ctrl (ΔNT); source: HeLa or HEK cells, transfected, in lysate; not shown: Flag, N-terminal, kept) IKTTLRELLVYIVFLVDICLLTYGMTSSSAYYYTKVMSELFLHTPSDTGVSFQAISSMADFWDFAQGPLLDSLYWTKWYNNQSLGHGSHSFIYYENMLLGVPRLRQLKVRNDSCVVHEDFREDILSCYDVYSPDKEEQLPFGPFNGTAWTYHSQDELGGFSHWGRLTSYSGGGYYLDLPGSRQGSAEALRALQEGLWLDRGTRVVFIDFSVYNANINLFCVLRLVVEFPATGGAIPSWQIRTVKLIRYVSNWDFFIVGCEVIFCVFIFYYVVEEILELHIHRLRYLSSIWNILDLVVILLSIVAVGFHIFRTLEVNRLMGKLLQQPNTYADFEFLAFWQTQYNNMNAVNLFFAWIKIFKYISFNKTMTQLSSTLARCAKDILGFAVMFFIVFFAYAQLGYLLFGTQVENFSTFIKCIFTQFRIILGDFDYNAIDNANRILGPAYFVTYVFFVFFVLLNMFLAIINDTYSEVKEELAGQKDELQLSDLLKQGYNKTLLRLRLRKERVSDVQKVLQGGEQEIQFEDFTNTLRELGHAEHEITELTATFTKFDRDGNRILDEKEQEKMRQDLEEERVALNTEIEKLGRSIVSSPQGKSGPEAARAGGWVSGEEFYMLTRRVLQLETVLEGVVSQIDAVGSKLKMLERKGWLAPSPGVKEQAIWKHPQPAPAVTPDPWGVQGGQESEVPYKREEEALEERRLSRGEIPTLQRS | – | 3 | – |
| Flag-tagged PKD2L1 ΔNT/T622X (M1-Y96 and T622-S805 double deletion) (domain or fragment, human, UniProt Q9P0L9-1 97-621, looked up, PKD2L1, human, M1-Y96 and T622-S805 deleted; source: HeLa cells, transfected, in lysate; not shown: Flag, N-terminal, kept) IKTTLRELLVYIVFLVDICLLTYGMTSSSAYYYTKVMSELFLHTPSDTGVSFQAISSMADFWDFAQGPLLDSLYWTKWYNNQSLGHGSHSFIYYENMLLGVPRLRQLKVRNDSCVVHEDFREDILSCYDVYSPDKEEQLPFGPFNGTAWTYHSQDELGGFSHWGRLTSYSGGGYYLDLPGSRQGSAEALRALQEGLWLDRGTRVVFIDFSVYNANINLFCVLRLVVEFPATGGAIPSWQIRTVKLIRYVSNWDFFIVGCEVIFCVFIFYYVVEEILELHIHRLRYLSSIWNILDLVVILLSIVAVGFHIFRTLEVNRLMGKLLQQPNTYADFEFLAFWQTQYNNMNAVNLFFAWIKIFKYISFNKTMTQLSSTLARCAKDILGFAVMFFIVFFAYAQLGYLLFGTQVENFSTFIKCIFTQFRIILGDFDYNAIDNANRILGPAYFVTYVFFVFFVLLNMFLAIINDTYSEVKEELAGQKDELQLSDLLKQGYNKTLLRLRLRKERVSDVQKVLQGGEQEIQFEDF | 3 | – | – |
